In the DeepSol protein solubility set:

Test: soluble on expression in E. coli; label from the status in PepcDB or PDB records

Sequence | soluble on expression in E. coli
MGSDKIHHHHHHMGVEHMRGFSNEIILKRTLTLSDFTLRYHKRGITALQVIKAPSVSNVPVLLSGDNYGYFVMWDLVTKRPITHIEIEGNSHIIAFWWVETTNVLYILSKDSMLRIFELDSSTQLSIDLVRKLSQANKTDHLQWTKIYEMPINTLNFANFIIEAEVKPTKDNKSYRLVCCHTDDSETIDIYQIIEDSTFKLKRPFNNINFPRFLKQQNFLGISKDSKFGIIMRFAKLNDVIFLGYENGFVVGFKITFDEGLQRDIAELVHVSNDHYPNPILDMCVSGDELYSCSTDDFITKYKIPVNLQLETKYLRDDALLIKCPSSLRVSEPSKVHLPLKNIGHIDKVKDDYLVVSSWSGMTIVYNMRTSEVEQTFVKSKNNLVVSDSSMGDLTNGSGSNTESSSKSHNYKVGAMTCLESFDVQSDGLRLGQLRRIKALAKCNWCLIGYEDGTIKLNKI | not soluble
MAHHHHHHMSKKNKSFYENDGSGRDTFVNYAGAYWMNPLPAGTFFKSRGHLTQSSVPTENGTSLVMDDSTPYPGRTLFGKSRYGTTILAAGQVATLDAPADSQSGHSAGMGSTSRSTANPLAGTDADAQEFDGEATALEHISFDVSNPERRLRQPGHSTTGLEGTGGGSTYNGVKEPWTAPNAVDSTLLRLAPAYESTCHYHLRTGLFYTEDAAPPHEMTLPDKGVTWGRSRYY | soluble
MSDLNNAIQGILDDHVARGVVGVSLALCLPGEETSLYQSGYADKFNKMPMTGDHLFRIASCTKSFIATGLHLLVQDGTVDLDEPITRWFPDLPKAAQMPVRILLNHRSGLPDFETSMPMISDKSWTAQEIVDFSFRHGVQKEPWHGMEYSNTGYVLAGMIIAHETGKPYSDHLRSRIFAPLGMKDTWVGTHETFPIEREARGYMHAAADDENPQWDVSGAGDPVDGVWDSTEWFPLSGANAAGDMVSTPRDIVKFLNALFDGRILDQKRLWEMKDNIKPAFFPGSNTVANGHGLLLMRYGSSELKGHLGQIPGHTSIMGRDEETGAALMLIQNSGAGDFESFYLKGVNEPVDRVLEAIKNSRS | soluble
MGSDKIHHHHHHMNTKNYFIIGGTGGIGKAMVEQLLQTATNEHASTGMNNDTGIRVFATYHKSIPDFEADNLYWIAMDICDEQSIKHAVDTIKQQTTHIDWVINCAGLLHTKAQQPEKALQQLESEFFLQNMQVNALASLLIAKHIKPLLAKAERSADKPAIFATISARVGSISDNQLGGWYSYRMSKAALNMGMKNLSIEWSRSLKDVCVVVMQPGTVNTQLSAPFQGNVADGQLFSPTYSAECLLEVLSKMSAAQSGSFVDWAGESIPW | not soluble
MEEDKNTLDLHTEAREEDRVAKAVALFKEGYNCSQSVVTAFADLYGFTREQALHMSASFGGGIGRMRETCGAACGMFLLAGLEKCAIEGKDRESKAANYALVQELAEEFKKRNGALRCADLLGLSGKEPVVSTPEARTERYYAKRPCARMVEEAARIWSEHLEKQKK | not soluble
MSLLRALPEVAEPEGVDFIEIATGRLGETIRVLHQLGFRLGGHHCSKQDYQVWTQGDVRIVVCDRGVTGAPTTISAMGFDTPDPEAAHARAELLRAQTIDRPHIEGEVDLKGVYAPDGVELFFAGPSPDGMPEWLPEFGVEKQEAGLIEAIDHVNFAQPWQHFDEAVLFYTALMALETVREDEFPSPIGLVRNQVMRSPNDAVRLLLSVAPEDGEQGDFLNAAYPEHIALATADIVAVAERARKRGLDFLPVPENYYDDVQARFDLPQEFLDTLKENHLLYDRDENGEFLHFYTRTLGTLFFEVVERRGGFAGWGETNAPVRLAAQYREVRDLERGIPEGHHHHHH | soluble
MDSKQQCVKLNDGHFMPVLGFGTYAPPEVPRSKALEVTKLAIEAGFRHIDSAHLYNNEEQVGLAIRSKIADGSVKREDIFYTSKLWSTFHRPELVRPALENSLKKAQLDYVDLYLIHSPMSLKPGEELSPTDENGKVIFDIVDLCTTWEAMEKCKDAGLAKSIGVSNFNRRQLEMILNKPGLKYKPVCNQVECHPYFNRSKLLDFCKSKDIVLVAYSALGSQRDKRWVDPNSPVLLEDPVLCALAKKHKRTPALIALRYQLQRGVVVLAKSYNEQRIRQNVQVFEFQLTAEDMKAIDGLDRNLHYFNSDSFASHPNYPYSDEYLEHHHHHH | soluble
MFPILETDRLILRQITDQDAEAIFACFSNDEVTRYYGLENMESIEQAISMIQTFAALYQEKRGIRWGIERRDTKELIGTIGFHALAQKHRRAEIGYEIIPEHWRNGFASEVISKVVSYGFSALGLSRIGAVVFTDNEASNRLLLKMGFQKEGVLRQYMYSKWDSI | not soluble
MGKKHKKHKSDKHLYEEYVEKPLKLVLKVGGNEVTELSTGSSGHDSSLFEDKNDHDKHKDRKRKKRKKGEKQIPGEEKGRKRRRVKEDKKKRDRDRVENEAEKDLQCHAPVRLDLPPEKPLTSSLAKQEEVEQTPLQEALNQLMRQLQRKDPSAFFSFPVTDFIAPGYSMIIKHPMDFSTMKEKIKNNDYQSIEELKDNFKLMCTNAMIYNKPETIYYKAAKKLLHSGMKILSQERIQSLKQSIDFMADLQKTRKQKDGTDTSQSGEDGGCWQREREDSGDAEAHAFKSPSKENKKKDKDMLEDKFKSNNLEREQEQLDRIVKESGGKLTRRLVNSQCEFERRKPDGTTTLGLLHPVDPIVGEPGYCPVRLGMTTGRLQSGVNTLQGFKEDKRNKVTPVLYLNYGPYSSYAPHYDSTFANISKDDSDLIYSTYGEDSDLPSDFSIHEFLATCQDYPYVMADSLLDVLTKGGHSRTLQEMEMSLPEDEGHTRTLDTAKEMEITEVEPPGRLDSSTQDRLIALKAVTNFGVPVEVFDSEEAEIFQKKLDETTRLLRELQEAQNERLSTRPPPNMICLLGPSYREMHLAEQVTNNLKELAQQVTPGDIVSTYGVRKAMGISIPSPVMENNFVDLTEDTEEPKKTDVAECGPGGS | soluble
MRFYNREKELARLMEIATLSEESAHLAVITGRRRVGKTELIRKFAEGRDDFLYFFVSKKKPRVLLDEFRDLLAARVPLLASASFGSFDDFFRALFEITKERPLFIVFDEFQNFQQVDPAVFSTLQDLWDRNKGTIKGTIVCIGSVQTLMREIFEGAKEPLFGRVTARLYVEPLIPDVVATILADHQVDAVRHLPFFFTLFGGIPKYYFLLDRYRLFGKTPAEIIRKFFCETDALLQNEGKDLLVEEFGKNYHLYFSILQVIAGGENQMARIADKSGINVNSISKYLDELTSYYQVIERRLPVTATRQEQKTGRYYLKDPLLRFWFRYIYRNQSLIEIGDEEGLLGKIQADLSTFMGWSFEELIRAMLLKRNDGTVVPFGFTRIGGFWTKRGDVEIDIVALNEEDGAIFFGECKLSGSRFSVADARRLKEKAKAVPWRTGDRREHFVLFCMDDLESDAEQALAAEGVGVVRLRQLLSVPLEHHHHHH | not soluble
MGSDKIHHHHHHMKEILTVTELNSYIANLLDSDPFLGQLWLRGEISGFRLYQQSGHMYFTLKDEDSTISAVMFKSRARGLKFKPKDGMEVLLRASVSVFARQGKYQLYVEEMQPYGIGGLFLYLEELKKKLAAKGYFAPERKKAIPAFVQRVGIVTSQDGAALRDICRILKQRHPGVEVVLAHSSVQGSEAPGELAEGLRLLNSYAEVELIIIGRGGGSYEDLMAFNSELVVQAIYESNIPVISAVGHEVDFTLADLVADLRAATPSQAASLAVADMQALSRQLDNYQQRLLRAMQRKLLYYTEIIDRLMMKRIWKQPRSLLHMREELLSQLEKSLSRGMAEIFREKKMKLSMNMAALDSLSPLKIMERGYVLLQKEGRIIRDEQQVQIGDRLEVAMRHADLEIEVIKKERVKRWKS | not soluble
MNKKILVVDDEESIVTLLQYNLERSGYDVITASDGEEALKKAETEKPDLIVLDVMLPKLDGIEVCKQLRQQKLMFPILMLTAKDEEFDKVLGLELGADDYMTKPFSPREVNARVKAILRRSEIRAPSSEMKNDEMEGQIVIGDLKILPDHYEAYFKESQLELTPKEFELLLYLGRHKGRVLTRDLLLSAVWNYDFAGDTRIVDVHISHLRDKIENNTKKPIYIKTIRGLGYKLEEPKMNE | soluble
MCAVLGDNSVSYNTMKFWFEKIKKKNYDLDDKPRSGRPRLDIDEDISRALEDDPRSMSREISATLKRPHTTIINHLHESGRVPKFGQLVPHNLSDSQKNLRCDLSLSLLTRKRTTDWVKDITTGDEKWVLYVNHTRKKQWVPVEEHAEPDLKGELHEKKVLLSIWWDSMGVIFRELLPDGATINADLYCIQLEKVVHAHQLHRPRGSKLLLLHDNARPHTALKTRQKLQTLGIEVLPHPPYSPDLAPTDYHLFRSLQNHLAGQKFHDRKAVETWLDDFFASKSQEFYAEGIAQLPLRWQEVIDTNGEYITH | not soluble
MAVAALKALLPPERLRRLTPLGGFEARVYTDGERVYKVYRKEEAHLAGLEARRMARAGFGSLVLAVIQGAEGGVLVTRRFPGRPFAPEAFTSKTLAALSHLFLALHRLPEPGKVTQEELLSRLERFAESLHDQPEALSLVQALKREVGLAAGVERRFCHRDAWAGNLLLKAPEAEGPEVFLVDWARAGGDDPARDLALLKTGSLDLLGEEAARAALFRMARLYPKEVRERLAFYVPLTYLHDLHWFRTKEPQGFPQALEEKLPKALAFFRDFFPRRGAW | soluble
MNAIADVQSSRDLRNLPINQVGIKDLRFPITLKTAEGTQSTVARLTMTVYLPAEQKGTHMSRFVALMEQHTEVLDFAQLHRLTAEMVALLDSRAGKISVSFPFFRKKTAPVSGIRSLLDYDVSLTGEMKDGAYGHSMKVMIPVTSLCPCSKEISQYGAHNQRSHVTVSLTSDAEVGIEEVIDYVETQASCQLYGLLKRPDEKYVTEKAYENPKFVEDMVRDVATSLIADKRIKSFVVESENFESIHNHSAYAYIAYP | soluble
MSSAQFDHVTVIKKSNVYFGGLCISHTVQFEDGTKKTLGVILPTEQPLTFETHVPERMEIISGECRVKIADSTESELFRAGQSFYVPGNSLFKIETDEVLDYVCHLEG | soluble
MNPNHNEGLLELYTQAISLEALKDAEQFLENSLLGKDAQVERLLAQVLIEEQQIETNRKKIAQLRIEKEELEFDCANSDLKSLEQMQAERDELQRKCQPGQHTKSNHKSSEQLLRMKKETDALRAYMKKISQFED | not soluble
MIQIRPMTPEDFDRFWPTFQAVVVAQETYAYDPALTQEQACDVWLKLPLHTLIAEEDGQLLGSYYLKANAAGPGNHVCNCGYMVTDAALGRGVARLMCEHSQQLARDSGFLAMQFNSVVASNEVAVALWAKLGFETVGRLPKAYRHARLGLVDCLVMFKWLADAPIAAEPVQPKLIGRKNIESVVSRPRRK | not soluble
MIGNVKMEYASASEEYLTESEMDEYLDDLRSKIPSFIVELLKNNLKNRKLTRPQLDKIVGRVSDLYFGKKPEDKKAAELTNKINDLSQKLDALMKVATISSATKVSDDIKKELNYLDDEKIEVPEISKAVEVPEIIEEPEISIEPVEEPVVEPVKIIEKQTVEPIIEFKEEPKIEKVVSKVPLEIEEGNNMRPELTPAVETTARLQELPEDTLSTMLVFKWLEFLISRVGTGNLIDVLDYYHNLGWVSGKAISKLMKVSKNMKYFHEDIDWKANECMAPEDHVVSLLYIEKLAGRPIAVEELEGMEREINRIKKWAEELQKM | not soluble
ISFVIAAPEAIAAAATDLASIGSTIGAANAAAAANTTAVLAAGADQVSVAIAAAFGAHGQAYQALSAQAATFHIQFVQALTAGAGSYAAAEAASAASITSPLLDAINAPFLAALGRPLIGNGADGAPGTGAAGGAGGLLFGNGGAGGSGAPGGAGGLLFGNGGAGGPGASGGALG | not soluble
MTVPYETAKAALLEAAMMHVPFDGWSETTFQAAARDAELSPSVARAICPRGAVDLAIAFHKAGDAAMLDRLAETDLSAMKFRDKVTAAVRIRLEVIEDKEAVRRGTTLFALPMYAADGAKLIWGTCDAIWTTLGDTSDDVNWYTKRATLSGVYSSTVLYWLGDDSPDHMATWGFLDRRIENVMAIEQVKAKVRQSPTLSRLMTGPNWLLSQIKAPRITPKTDLEHHHHHH | soluble
